Reference: patent US20230242651A1 (published 2023)
Positions count from the first letter of the chain named.

T1: human interleukin-23 receptor (IL23R) (human, UniProt Q5VWK5 24-355, limits assumed)
T1 construct: also called human IL23R
T1 sequence (looked up): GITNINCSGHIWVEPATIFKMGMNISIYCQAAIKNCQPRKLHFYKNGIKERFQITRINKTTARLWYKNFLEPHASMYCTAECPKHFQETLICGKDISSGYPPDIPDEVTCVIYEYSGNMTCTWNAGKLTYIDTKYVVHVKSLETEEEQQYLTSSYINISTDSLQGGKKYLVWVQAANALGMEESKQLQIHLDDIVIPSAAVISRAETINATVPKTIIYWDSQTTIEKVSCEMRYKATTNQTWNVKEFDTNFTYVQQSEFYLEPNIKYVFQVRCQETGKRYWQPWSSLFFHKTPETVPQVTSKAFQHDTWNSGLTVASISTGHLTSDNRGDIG

B1: Vκ3/VH6 consensus λ-capped, human IL23R specific scFv (scFv)
scFv: DIVLTQSPATLSLSPGERATLSCQASENIYSFLAWYQQKPGQAPRLLIYSASKLAAGVPARFSGSGSGTDFTLTISSLEPEDFAVYYCQQTNRYSNPDIYNVFGGGTKLTVLGGGGGSGGGGSGGGGSGGGGSQVQLQQSGPGLVKPSQTLSLTCAISGIDFNSNYYMCWIRQSPGRGLEWLGCIYVGSHVNTYYANWAKGRITINPDTSKNQFSLQLNSVTPEDTAVYYCATSGSSVLYFKFWGQGTLVTVSS
notes: scFv VL-linker-VH, made in E. coli; also called Vκ3VH6 capped
B2: Vκ1/VH2 consensus (uncapped), human IL23R specific scFv (scFv)
scFv: DIQMTQSPSSLSASVGDRVTITCQASENIYSFLAWYQQKPGKAPKLLIYSASKLAAGVPSRFSGSGSGTDFTLTISSLQPEDFATYYCQQTNRYSNPDIYNVFGQGTKVEIKRGGGGSGGGGSGGGGSGGGGSQVQLKESGPALVKPTQTLTLTCTFSGIDFNSNYYMCWIRQPPGKALEWLACIYVGSHVNTYYANWAKGRLTISKDTSKNQVVLTMTNMDPVDTATYYCATSGSSVLYFKFWGQGTLVTVSS
notes: scFv VL-linker-VH, made in E. coli; Vκ framework IV (uncapped, full consensus); also called Vκ1VH2 uncapped
B3: Vκ3/VH4 consensus (uncapped), human IL23R specific scFv (scFv)
scFv: DIVLTQSPATLSLSPGERATLSCQASENIYSFLAWYQQKPGQAPRLLIYSASKLAAGVPARFSGSGSGTDFTLTISSLEPEDFAVYYCQQTNRYSNPDIYNVFGQGTKVEIKRGGGGSGGGGSGGGGSGGGGSQVQLQESGPGLVKPSETLSLTCTVSGIDFNSNYYMCWIRQPPGKGLEWIGCIYVGSHVNTYYANWAKGRVTISVDTSKNQFSLKLSSVTAADTAVYYCATSGSSVLYFKFWGQGTLVTVSS
notes: scFv VL-linker-VH, made in E. coli; Vκ framework IV (uncapped, full consensus); also called Vκ3VH4 uncapped
B4: Vκ1/VH4 consensus (uncapped), human IL23R specific scFv (scFv)
scFv: DIQMTQSPSSLSASVGDRVTITCQASENIYSFLAWYQQKPGKAPKLLIYSASKLAAGVPSRFSGSGSGTDFTLTISSLQPEDFATYYCQQTNRYSNPDIYNVFGQGTKVEIKRGGGGSGGGGSGGGGSGGGGSQVQLQESGPGLVKPSETLSLTCTVSGIDFNSNYYMCWIRQPPGKGLEWIGCIYVGSHVNTYYANWAKGRVTISVDTSKNQFSLKLSSVTAADTAVYYCATSGSSVLYFKFWGQGTLVTVSS
notes: scFv VL-linker-VH, made in E. coli; Vκ framework IV (uncapped, full consensus); also called Vκ1VH4 uncapped
B5: Vκ2/VH1A consensus (uncapped), human IL23R specific scFv (scFv)
scFv: DIVMTQSPLSLPVTPGEPASISCQASENIYSFLAWYLQKPGQSPQLLIYSASKLAAGVPDRFSGSGSGTDFTLKISRVEAEDVGVYYCQQTNRYSNPDIYNVFGQGTKVEIKRGGGGSGGGGSGGGGSGGGGSQVQLVQSGAEVKKPGSSVKVSCKASGIDFNSNYYMCWVRQAPGQGLEWMGCIYVGSHVNTYYANWAKGRVTITADESTSTAYMELSSLRSEDTAVYYCATSGSSVLYFKFWGQGTLVTVSS
notes: scFv VL-linker-VH, made in E. coli; Vκ framework IV (uncapped, full consensus); also called Vκ2VH1A uncapped
B6: Vκ2/VH1B consensus λ-capped, human IL23R specific scFv (scFv)
scFv: DIVMTQSPLSLPVTPGEPASISCQASENIYSFLAWYLQKPGQSPQLLIYSASKLAAGVPDRFSGSGSGTDFTLKISRVEAEDVGVYYCQQTNRYSNPDIYNVFGGGTKLTVLGGGGGSGGGGSGGGGSGGGGSQVQLVQSGAEVKKPGASVKVSCKASGIDFNSNYYMCWVRQAPGQGLEWMGCIYVGSHVNTYYANWAKGRVTMTRDTSISTAYMELSSLRSEDTAVYYCATSGSSVLYFKFWGQGTLVTVSS
notes: scFv VL-linker-VH, made in E. coli; also called Vκ2VH1B capped
B7: Vκ3/VH3 consensus (uncapped), human IL23R specific scFv (scFv)
scFv: DIVLTQSPATLSLSPGERATLSCQASENIYSFLAWYQQKPGQAPRLLIYSASKLAAGVPARFSGSGSGTDFTLTISSLEPEDFAVYYCQQTNRYSNPDIYNVFGQGTKVEIKRGGGGSGGGGSGGGGSGGGGSEVQLVESGGGLVQPGGSLRLSCAASGIDFNSNYYMCWVRQAPGKGLEWVSCIYVGSHVNTYYANWAKGRFTISRDNSKNTLYLQMNSLRAEDTAVYYCATSGSSVLYFKFWGQGTLVTVSS
notes: scFv VL-linker-VH, made in E. coli; Vκ framework IV (uncapped, full consensus); also called Vκ3VH3 uncapped
B8: Vκ1/VH6 consensus (uncapped), human IL23R specific scFv (scFv)
scFv: DIQMTQSPSSLSASVGDRVTITCQASENIYSFLAWYQQKPGKAPKLLIYSASKLAAGVPSRFSGSGSGTDFTLTISSLQPEDFATYYCQQTNRYSNPDIYNVFGQGTKVEIKRGGGGSGGGGSGGGGSGGGGSQVQLQQSGPGLVKPSQTLSLTCAISGIDFNSNYYMCWIRQSPGRGLEWLGCIYVGSHVNTYYANWAKGRITINPDTSKNQFSLQLNSVTPEDTAVYYCATSGSSVLYFKFWGQGTLVTVSS
notes: scFv VL-linker-VH, made in E. coli; Vκ framework IV (uncapped, full consensus); also called Vκ1VH6 uncapped
B9: Vκ1/VH1A consensus (uncapped), human IL23R specific scFv (scFv)
scFv: DIQMTQSPSSLSASVGDRVTITCQASENIYSFLAWYQQKPGKAPKLLIYSASKLAAGVPSRFSGSGSGTDFTLTISSLQPEDFATYYCQQTNRYSNPDIYNVFGQGTKVEIKRGGGGSGGGGSGGGGSGGGGSQVQLVQSGAEVKKPGSSVKVSCKASGIDFNSNYYMCWVRQAPGQGLEWMGCIYVGSHVNTYYANWAKGRVTITADESTSTAYMELSSLRSEDTAVYYCATSGSSVLYFKFWGQGTLVTVSS
notes: scFv VL-linker-VH, made in E. coli; Vκ framework IV (uncapped, full consensus); also called Vκ1VH1A uncapped
B10: Vκ1/VH1B consensus (uncapped), human IL23R specific scFv (scFv)
scFv: B9 scFv with S149A, I205M, A207R, E209T, T211I
notes: scFv VL-linker-VH, made in E. coli; Vκ framework IV (uncapped, full consensus); also called Vκ1VH1B uncapped
B11: Vκ1/VH5 consensus (uncapped), human IL23R specific scFv (scFv)
scFv: DIQMTQSPSSLSASVGDRVTITCQASENIYSFLAWYQQKPGKAPKLLIYSASKLAAGVPSRFSGSGSGTDFTLTISSLQPEDFATYYCQQTNRYSNPDIYNVFGQGTKVEIKRGGGGSGGGGSGGGGSGGGGSEVQLVQSGAEVKKPGESLKISCKGSGIDFNSNYYMCWVRQMPGKGLEWMGCIYVGSHVNTYYANWAKGQVTISADKSISTAYLQWSSLKASDTAMYYCATSGSSVLYFKFWGQGTLVTVSS
notes: scFv VL-linker-VH, made in E. coli; Vκ framework IV (uncapped, full consensus); also called Vκ1VH5 uncapped
B12: Vκ3/VH5 consensus (uncapped), human IL23R specific scFv (scFv)
scFv: DIVLTQSPATLSLSPGERATLSCQASENIYSFLAWYQQKPGQAPRLLIYSASKLAAGVPARFSGSGSGTDFTLTISSLEPEDFAVYYCQQTNRYSNPDIYNVFGQGTKVEIKRGGGGSGGGGSGGGGSGGGGSEVQLVQSGAEVKKPGESLKISCKGSGIDFNSNYYMCWVRQMPGKGLEWMGCIYVGSHVNTYYANWAKGQVTISADKSISTAYLQWSSLKASDTAMYYCATSGSSVLYFKFWGQGTLVTVSS
notes: scFv VL-linker-VH, made in E. coli; Vκ framework IV (uncapped, full consensus); also called Vκ3VH5 uncapped
B13: Vκ1/VH3 consensus (uncapped), human IL23R specific scFv (scFv)
scFv: DIQMTQSPSSLSASVGDRVTITCQASENIYSFLAWYQQKPGKAPKLLIYSASKLAAGVPSRFSGSGSGTDFTLTISSLQPEDFATYYCQQTNRYSNPDIYNVFGQGTKVEIKRGGGGSGGGGSGGGGSGGGGSEVQLVESGGGLVQPGGSLRLSCAASGIDFNSNYYMCWVRQAPGKGLEWVSCIYVGSHVNTYYANWAKGRFTISRDNSKNTLYLQMNSLRAEDTAVYYCATSGSSVLYFKFWGQGTLVTVSS
notes: scFv VL-linker-VH, made in E. coli; Vκ framework IV (uncapped, full consensus); also called Vκ1VH3 uncapped

target: T1, human interleukin-23 receptor (IL23R); test: SPR, scFv
Summary of the method: (§1)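 Affinity values for human IL23R come from surface plasmon resonance, expressed as rate constants and dissociation constant or as the λ-capped to uncapped dissociation-constant ratio. The tested molecules were humanized rabbit scFv on consensus germline framework pairs, either uncapped or with Vκ framework IV replaced by a Vλ germline sequence (λ-cap), refolded from E. coli inclusion bodies.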

| Kd [nM] | koff [s⁻¹] | kon [M⁻¹ s⁻¹] | Binder |
| --- | --- | --- | --- |
| 0.394 | 0.000563 | 1.43e+06 | B1 |
| 0.211 | 0.000333 | 1.58e+06 | B2 |
| 0.139 | 0.000263 | 1.89e+06 | B3 |
| 0.0991 | 0.000176 | 1.78e+06 | B4 |
| 0.222 | 0.000279 | 1.26e+06 | B5 |
| 0.143 | 0.000326 | 2.29e+06 | B6 |
| 0.0395 | 6.52e-05 | 1.65e+06 | B7 |
| 0.251 | 0.000309 | 1.23e+06 | B8 |
| 0.02 | 0.000128 | 6.42e+06 | B9 |
| 0.168 | 0.000413 | 2.45e+06 | B10 |
| 0.239 | 0.000538 | 2.25e+06 | B11 |
| 0.525 | 0.000904 | 1.72e+06 | B12 |
| 0.0347 | 5.28e-05 | 1.52e+06 | B13 |

target: T1, human interleukin-23 receptor (IL23R); test: SPR, scFv (summary table)
Summary of the method: as §1

| Kd [nM] | Binder |
| --- | --- |
| 0.394 | B1 |
| 0.211 | B2 |
| 0.139 | B3 |
| 0.0991 | B4 |
| 0.222 | B5 |
| 0.143 | B6 |
| 0.0395 | B7 |
| 0.251 | B8 |
| 0.02 | B9 |
| 0.168 | B10 |
| 0.239 | B11 |
| 0.525 | B12 |
| 0.0347 | B13 |
